Where “and” joins values, the source holds several entries; their conditions need not be identical. Equal values may be shown once.
Columns and labels:
Cyno-IL17RB = experiment: Bio-Layer Interferometry (Octet), SM17 binding kinetics to cynomolgus IL17RB; parameters: species or system cynomolgus monkey; conditions: trials 1 and 2
Description: Bio-Layer Interferometry analysis (Octet ReD96 system, Sartorius) was employed to determine the binding affinity of SM17 against human and cynomolgus monkey IL17RB protein (R&D systems). Briefly, SM17 (20 μg/mL) was immobilized on biosensors via interactions with anti-human Fab CH1; serially diluted Cyno-IL17RB and Human-IL17RB (at a concentration of 158.7 nM, 79.4 nM and 39.7 nM, respectively) were subsequently added following standard operation protocols of the Octet ReD96 system to plot out the association and dissociation curve. Irrelevant antibody (SM03, anti-human CD22 chimeric IgG1 antibody, SinoMab BioScience Limited) was used as the control reference. Of note, the KD is within picomolar-single digit nanomolar range.

rhesus IL17RB = target: T1, rhesus IL17RB (Macaca mulatta, UniProt H9FWT9); experiment: ELISA, SM17 binding to coated IL-17RB protein (rhesus); parameters: species or system rhesus monkey; conditions: two wells
T1 construct: purchased R&D systems
T1 sequence (H9FWT9 18-502): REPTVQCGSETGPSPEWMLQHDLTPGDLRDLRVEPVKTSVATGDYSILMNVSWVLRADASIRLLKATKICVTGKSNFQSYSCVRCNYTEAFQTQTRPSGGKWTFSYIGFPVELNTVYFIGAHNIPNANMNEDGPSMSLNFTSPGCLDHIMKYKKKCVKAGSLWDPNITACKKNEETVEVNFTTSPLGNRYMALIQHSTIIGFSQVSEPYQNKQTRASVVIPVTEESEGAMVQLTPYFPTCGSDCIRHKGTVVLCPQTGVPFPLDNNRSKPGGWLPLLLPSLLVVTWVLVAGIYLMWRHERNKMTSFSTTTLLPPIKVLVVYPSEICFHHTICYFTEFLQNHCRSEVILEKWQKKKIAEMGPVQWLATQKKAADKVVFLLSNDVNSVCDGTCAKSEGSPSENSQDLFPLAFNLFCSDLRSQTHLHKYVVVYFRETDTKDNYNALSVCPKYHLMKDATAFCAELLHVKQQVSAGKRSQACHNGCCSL
Description: A standard enzyme-linked immunosorbent assay (ELISA) method was used to determine the species specificity of SM17 against IL-17RB proteins. Briefly, IL-17RB proteins from human, mouse, cynomolgus or rhesus monkey (R&D systems, Minneapolis, MN) were diluted to 2.5 μg/ml in PBS and 50 μl of IL-17RB proteins were added to each well of ELISA strip. The strips were sealed with parafilm and incubated at 4° C. overnight for coating.
On the next day, strips were washed thrice with washing buffer (0.05% Tween 20 in PBS) and blocked with 100 μl per well with blocking buffer (3% BSA in PBS) for 2 hours RT before serially diluted SM17 (at a final concentration of 10, 2, 0.4, 0.08, 0.016, 0.0032, and 0.00064 μg/ml, respectively) was added.

[1] = tested on: IL-2/IL-25-treated human PBMC; experiment: IL-5 release from IL-2/IL-25-treated human PBMC; assay type: cell-based; conditions: SM17 0.16 ng/mL to 5 mg/mL; 10 unit/mL IL-2, 10 μg/mL IL-25; 72 hours; dose dependent
Description: PBMC (Ixcells, San Diego, CA) co-cultured with IL-2 and IL-25 (PeproTech, Cranbury, NJ) can lead to the release of IL-5, a cytokine known to exacerbate the conditions of asthma. Accordingly, the inhibitory effect of SM17 on IL-5 release from IL-2/IL-25-treated human PBMC was evaluated. Briefly, cryopreserved human PBMC were thawed and cultured in RPMI-1640 medium supplemented with 10% Fetal Bovine Serum (Thermo Fisher Scientific). Serially diluted SM17 at concentrations ranging from 0.16 ng/mL to 5 mg/mL were added to 4×10^5 of human PBMC in the presence of 10 unit/mL of IL-2 and 10 μg/mL of IL-25. Non-specific human IgG4 (SinoBiological) was used as the control antibody. Treated cells were incubated for 72 hours at 37° C., and the level of IL-5 release in the culture supernatant was measured by standard ELISA assay (R&D systems). […] Results are presented as means±SEM. One Way ANOVA, Dunnett's Multiple Comparison Test, *: P<0.05; **: P<0.01.

TSLP = target: T2, TSLP (Homo sapiens, UniProt Q969D9); experiment: Bio-Layer Interferometry (Octet), binding kinetics of bsBp to human TSLP
T2 construct: purchased R&D systems
Description: The binding affinity of bsBp to the targeted alarmins was determined using a bio-Layer Interferometry analysis (Octet ReD96 system, Sartorius). bsBp or SM17 (20 μg/mL) was immobilized on biosensors via binding to anti-human Fab CH1 region; serially diluted human IL33 and TSLP (158.7 nM, 79.4 nM, 39.7 nM) (R&D systems) were added to plot the association and dissociation curve according to the manufacturer's specification. Biosensors immobilized with irrelevant antibody (SM03, anti-human CD22 chimeric IgG1 antibody, SinoMab BioScience Limited, 20 μg/mL) were used as control reference.

Human PBMCs = experiment: IL-5 and IL-13 release from human PBMC incubated with IL-2 and three alarmins; assay type: cell-based; conditions: SM17 5 μg/ml; IL-2 and three alarmins (10 ng/ml), three days; vs IgG4 isotype control
Description: Human PBMCs (4×10^5 per group, Ixcells) were incubated with IL-2 (10 unit/mL, PeproTech) and various alarmin/alarmin combinations to mimic the pro-inflammatory cytokines release during allergic diseases. For IL-5 and IL-13 releases, PBMCs were incubated with IL-2 and three alarmins (all 10 ng/ml) for three days. For CCL17 release, PBMC was incubated with TSLP (10 ng/ml) for 1 day. For CCL8 and IFNγ releases, PBMCs were incubated with IL-12 (10 ng/ml, Sino Biological) and IL-33 (10 ng/ml) for 1 day. Cells were pretreated with SM17 (5 μg/ml) or IgG4 isotype control (5 μg/ml) for an hour before the addition of cytokines.
Supernatants were collected and the cytokine concentration were measured by ELISA kits (R&D systems). These established assays were used to test the potency of and SM17 and bsBps. […] Results were expressed in absolute amount in pg/ml.
SM17, three different SM17-anti-IL33 bsBps and three different SM17-anti-TSLP bsBps (all at 5 μg/ml) were added to human PBMC cultures under conditions that shall induce the release of IFNγ, CCL8, CCL17 and IL-5 as described in Example 11 above. The levels of different cytokines and chemotactic factors in supernatant obtained in induced PBMC were evaluated using standard ELISA methods.

SM17: humanized anti-IL17RB monoclonal antibody, human IgG4 isotype; HC SEQ ID NO: 32, LC SEQ ID NO: 33
Ka (Cyno-IL17RB): 32100 M⁻¹ s⁻¹ and 42100 M⁻¹ s⁻¹ | Kdis (Cyno-IL17RB): 2.73e-05 s⁻¹ and 0.000215 s⁻¹ | OD 450 nm Absorption, rhesus IL17RB (rhesus IL17RB; SM17 0.016 μg/mL): 0.27 and 0.17 | OD 450 nm Absorption, rhesus IL17RB (rhesus IL17RB; SM17 0.08 μg/mL): 0.51 and 0.58 | OD 450 nm Absorption, rhesus IL17RB (rhesus IL17RB; SM17 0.4 μg/mL): 1.12 and 1.17 | OD 450 nm Absorption, rhesus IL17RB (rhesus IL17RB; SM17 2 μg/mL): 1.40 and 1.45 | OD 450 nm Absorption, rhesus IL17RB (rhesus IL17RB; SM17 10 μg/mL): 1.57 and 1.59 | release of IL-5 from human PBMC induced with IL-2 and IL-25 (in words) [1]: suppressed the release of IL-5 | Kdis (TSLP): 0.001 s⁻¹ | Ka (TSLP; bsBp or SM17 immobilized at 20 μg/mL): 10000 M⁻¹ s⁻¹ | secretion of IL-5 (in words) (Human PBMCs): effectively suppress | secretion of IL-13 (in words) (Human PBMCs): effectively suppress
